Assay results: PMC8960874 (Nature Communications, 2022)

B1: Clone 2 Fab (Fab, V domains shown)
VH: EVQLQQSGPELVKPGASVKISCKASGYSFTGYSMNWMKQSPEKSLEWIGEINPSTGGTTDNQKFKAKATLTVDKSSSTAYMQLKSLTSEDSAVYYCARSRGDYWGQGTSVTVSS
VL: DIVLTQSPASLAVSLGQRATISCRASESVEYYGTSLMQWYQQKPGQPPKVLIYAASNVESGVPARFSGSGSGTDFSLNIHPVEEDDIAMYFCQQSRKVPWTFGGGTKLEIK
notes: also called Fab2; Fab clone 2
B2: Clone 6 Fab (Fab, V domains shown)
VH: QVQLQQSAAELARPGASVKMSCKASGYTFTSYTMHWVKQRPGQGLEWIGYINPTSGYTEYNQNFKDKTTLTADKSSSTAYMQLNSLTSEDSAVYYCAREGHRVGPAYWGQGTLVTVSA
VL: not shown
notes: also called Fab6; Fab clone 6

Biological target: T1, WT ectodomain of the SARS-CoV-2 spike trimer (SARS-CoV-2, original …, stabilised)
T1 construct: also called S trimer; prefusion spike trimer ectodomain
Assay: cryo-EM structure
Details: both partners purified

Binder | stoichiometry N
B1 | 3 Fab molecules per S trimer
B2 | 3 Fab molecules per S trimer
